Laboratory results from US20260242515A1 (DUALITY BIOLOGICS SHANGHAI, published 2026).
Substitutions are numbered along the chain they refer to. Values belong to the binder of their own block, whether it stands above or below them.

Assays:
[1] = biological target: T1, Human ADAM9 protein (ACROBiosystems, Cat. No. AD9-H52H7) (human, UniProt Q13443 29-697); experiment: SPR (Biacore 8K), antibody captured by anti-human Fc on CM5, ADAM9 as analyte
T1 construct: Bought protein; also called Human ADAM-His protein; human ADAM9 antigen; not shown: His tag
T1 sequence (looked up): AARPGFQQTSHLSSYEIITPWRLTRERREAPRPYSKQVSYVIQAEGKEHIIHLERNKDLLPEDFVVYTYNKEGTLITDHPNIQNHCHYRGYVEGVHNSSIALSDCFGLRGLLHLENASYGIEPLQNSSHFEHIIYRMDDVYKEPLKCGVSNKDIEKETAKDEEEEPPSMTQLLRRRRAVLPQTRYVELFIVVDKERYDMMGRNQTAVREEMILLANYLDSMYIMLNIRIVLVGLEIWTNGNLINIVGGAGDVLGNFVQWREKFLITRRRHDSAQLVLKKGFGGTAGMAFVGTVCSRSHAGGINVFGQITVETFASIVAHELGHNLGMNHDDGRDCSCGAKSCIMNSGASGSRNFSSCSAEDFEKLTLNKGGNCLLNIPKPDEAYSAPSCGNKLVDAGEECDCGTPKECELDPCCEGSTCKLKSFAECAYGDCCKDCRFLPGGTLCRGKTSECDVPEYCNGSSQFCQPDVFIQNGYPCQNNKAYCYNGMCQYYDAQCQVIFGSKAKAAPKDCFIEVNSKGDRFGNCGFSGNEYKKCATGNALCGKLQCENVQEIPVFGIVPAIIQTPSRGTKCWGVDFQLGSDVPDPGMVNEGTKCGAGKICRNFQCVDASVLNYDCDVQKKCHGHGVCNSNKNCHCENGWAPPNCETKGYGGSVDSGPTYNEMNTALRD
Method: Chip preparation: The mouse anti-human IgG (Fc) antibody (Cat. No. 29234600, Cytiva) was diluted to 25 μg/mL in immobilization buffer (10 mM sodium acetate, pH 5.0), specifically by adding 950 μL of the immobilization buffer to 50 μL of the mouse anti-human IgG (Fc) antibody. The dilution was used for immobilization in eight channels. First, the surface of the CM5 chip was activated with 400 mM EDC and 100 mM NHS at a flow rate of 10 μL/min for 420 seconds. Then, 25 μg/mL of the mouse anti-human IgG (Fc) antibody was injected into the test channels at a flow rate of 10 μL/min for approximately 360 seconds, with the level of immobilization at approximately 7000 to 14000 RU. Finally, the chip was blocked with 1 M ethanolamine at a flow rate of 10 μL/min for 420 seconds. The reference channels underwent the same procedures as the test channels.
Ligand capture: Antibodies Ab10, Ab15, Ab16, and hMAB-A (2I.2) were diluted to 4 μg/mL in running buffer (containing 10 mM N-(2-hydroxyethyl)piperazine-N-2-ethanesulfonic acid (HEPES), 150 mM sodium chloride (NaCl), 3 mM ethylenediaminetetraacetic acid (EDTA), 0.005% Tween-20, pH adjusted to 7.4) and injected into the test channels for human IgG (Fc) capture at a flow rate of 10 μL/min at approximately 200 RU. No ligand capture was performed in the reference channels.
Analyte multi-cycle analysis: Human and cynomolgus ADAM9 proteins (human ADAM9 protein purchased from ACRO, Cat. No. AD9-H52H7; monkey ADAM9 protein purchased from ACRO, Cat. No. AD9-C52H7) were diluted 2-fold in running buffer (Table 10). The diluted human or cynomolgus ADAM9 protein was sequentially injected into the test channels and the reference channels at a flow rate of 30 μL/min, with corresponding association and dissociation times. Both the association and dissociation steps were performed in the running buffer. After each concentration analysis, the chip was regenerated with 3 M magnesium chloride at a flow rate of 20 μL/min for 30 seconds to wash away the ligand and any undissociated analyte. For the next concentration analysis, the test channels required re-capture of the same amount of ligand.

[2] = biological target: T1, Human ADAM9 protein (ACROBiosystems, …); experiment: indirect ELISA, human ADAM9-His coated at 1 ug/mL
Method: The plate was washed three times with PBST (PBS (pH 7.4) containing 0.05% Tween-20), followed by addition of 200 μL/well of blocking buffer containing 1% bovine serum albumin (BSA) diluted in PBST, and incubated at 37° C. for 1 hour for blocking. After blocking, the blocking buffer was discarded, and the plate was washed once with PBST buffer. The test antibody was diluted in PBST containing 1% BSA with a 3-fold serial dilution starting at 15 μg/mL across 11 doses, and added to the ELISA plate at 100 μL/well, followed by incubation at 37° C. for 1 hour. After incubation, the plate was washed three times with PBST, followed by addition of 100 μL/well of HRP-labeled goat anti-human secondary antibody (Rockland, Cat. No. 609-103-123) diluted in PBST containing 1% BSA, and incubated at room temperature for 45 minutes. The plate was washed six times with PBST, followed by addition of 100 μL/well of TMB chromogenic substrate (Suzhou Yacoo Chemical Reagent Co., Ltd., Cat. No. S0025), and incubated at room temperature in the dark for 10 minutes. The reaction was terminated by adding 50 μL/well of 1 M HCl, and the absorbance was measured at 450 nm using a microplate reader (Thermo, Ascent) for data analysis.

[3] = biological target: T2, ADAM9 on human tumor cells (LS174T, HepG2, Calu-3, Colo205) (human, UniProt Q13443 29-819); experiment: cell-based or functional assay
T2 sequence (looked up): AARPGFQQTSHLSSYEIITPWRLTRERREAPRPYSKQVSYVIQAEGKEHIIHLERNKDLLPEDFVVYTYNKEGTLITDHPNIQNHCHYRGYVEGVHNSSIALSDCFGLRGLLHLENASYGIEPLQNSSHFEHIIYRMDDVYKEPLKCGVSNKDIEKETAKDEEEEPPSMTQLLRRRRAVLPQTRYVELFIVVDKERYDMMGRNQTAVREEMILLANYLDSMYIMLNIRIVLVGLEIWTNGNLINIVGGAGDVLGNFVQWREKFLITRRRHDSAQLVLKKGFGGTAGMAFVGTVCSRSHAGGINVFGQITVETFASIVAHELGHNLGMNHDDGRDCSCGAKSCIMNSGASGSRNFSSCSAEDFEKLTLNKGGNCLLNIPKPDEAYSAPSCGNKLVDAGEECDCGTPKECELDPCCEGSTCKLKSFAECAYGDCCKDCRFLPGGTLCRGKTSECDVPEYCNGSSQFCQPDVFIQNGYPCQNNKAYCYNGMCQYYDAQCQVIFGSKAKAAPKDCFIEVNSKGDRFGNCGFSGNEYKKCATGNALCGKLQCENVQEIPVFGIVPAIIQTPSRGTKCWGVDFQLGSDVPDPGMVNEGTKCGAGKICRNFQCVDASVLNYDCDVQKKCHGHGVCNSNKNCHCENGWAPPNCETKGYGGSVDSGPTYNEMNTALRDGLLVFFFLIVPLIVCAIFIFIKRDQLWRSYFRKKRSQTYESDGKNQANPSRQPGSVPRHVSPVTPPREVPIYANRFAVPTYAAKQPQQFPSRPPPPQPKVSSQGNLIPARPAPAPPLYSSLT

[4] = biological target: T2, ADAM9 on human tumor cells (LS174T, …); experiment: cell-based or functional assay; remark: listed apart in the source

B1: Ab10 (antibody, human IgG1, kappa, V domains shown)
VH: QVQLQESGAELKRPGSSVKVSCKASGFTFPLYWMNWVRQRPGRGLEWMGRIIPIFGHTKYNEKFKDRATLTADESSSTAYMELSSLRSDDSAVYYCARGGYYYYPREGFLDYWGQGTSVTVSS
VL: DIVMTQSPASLSVSPGERASISCRSSQSVDYSGDSYMNWYQQKPGQSPRLLIYAASDRESGVPARFSGSKSGTDFTLKINRVEEEDAGTYYCQQSREDPFTFGQGTRVEIKR
notes: also called Ab10-V (variable regions)
Kd [1]: 17.5 nM | koff [1]: 0.00255 s⁻¹ | kon [1]: 146000 M⁻¹ s⁻¹ | EC50 [2]: 0.059 nM | Top (OD450) [2]: 3.4 OD450 | EC50 for internalization [3]: 0.16 nM | Maximum internalization rate (%) [3]: 81.3%

B3: Ab1 (antibody, human IgG1, kappa, V domains shown)
VH: B1 VH with L11V, R43Q, K59D, L70I, A72R, S77N, S85R, D89E
VL: B1 VL with A64D, K70G, N80S, R107K, E109D
notes: also called Ab01; Ab1-V (variable regions)
EC50 [2]: 0.052 nM | Top (OD450) [2]: 3.12 OD450

B5: Ab15-X2 (antibody, human IgG1, kappa, V domains shown)
VH: B1 VH with E6Q, S7P, R13K, S16A, M48I, L70M, R87T, D89E
VL: B1 VL with A9D, S20T, S22N, A64D, K70G, N80S, R81N, G88A
modifications: linker-payload X2 (camptothecin type) conjugated after TCEP reduction; DAR p=7.8 per antibody; sites not stated
IC50 (nM), proliferation inhibition of Colo205 cells (CTG, 6 days) [4]: 28.5 nM | IC50 (nM), proliferation inhibition of LS174T cells (CTG, 6 days) [4]: 11.6 nM

B6: Ab16-X2 (antibody, human IgG1, kappa, V domains shown)
VH: QVQLQQPGTEVVKPGASVKLSCKASGFTFPLYWMHWVRQRPGRGLEWIGRIIPIFGHTKYNEKFKNKATLTADESSSTAYMELRSLTSDDSAVYYCARGGYYYYPREGFLDYWGQGTSVTVSS
VL: B1 VL with A64D, K70G, N80S, R107K, E109D
modifications: linker-payload X2 (camptothecin type) conjugated after TCEP reduction; DAR p=7.9 per antibody; sites not stated
IC50 (nM), proliferation inhibition of Calu-3 cells (CTG, 6 days) [4]: 3.83 nM | IC50 (nM), proliferation inhibition of Colo205 cells (CTG, 6 days) [4]: 29.8 nM | IC50 (nM), proliferation inhibition of LS174T cells (CTG, 6 days) [4]: 8.97 nM

Second part, the binder after the results:

EC50 [2]: 0.055 nM | Top (OD450) [2]: 3.06 OD450
B2: Ab4 (antibody, human IgG1, kappa, V domains shown)
VH: B1 VH with L11V, L70M, A72R, E74K, R87T
VL: DIVMTQSPSSLSVSPGERATINCRSSQSVDYSGDSYMNWYQQKPGQAPRLLIYAASDLESGVPDRFSGSGSGTDFTLNINGVEEEDAATYYCQQSREDPFTFGQGTKVEIKR
notes: also called Ab04; Ab4-V (variable regions)

IC50 (nM), proliferation inhibition of Calu-3 cells (CTG, 6 days) [4]: 8.6 nM
B4: Ab16-X1 (antibody, human IgG1, kappa, V domains shown)
VH: B6 VH
VL: B1 VL with A64D, K70G, N80S, R107K, E109D
modifications: linker-payload X1 (camptothecin type) conjugated after TCEP reduction; DAR p=7.8 per antibody; sites not stated

EC50 [2]: 0.06 nM | Top (OD450) [2]: 3.31 OD450
B7: Ab7 (antibody, human IgG1, kappa, V domains shown)
VH: B1 VH with L11V, R43Q, K59D, L70I, A72R, S77N, S85R, D89E
VL: B1 VL with S22N, S26D, Q46K, A64D, K70G, K78N, R81S, E109D
notes: also called Ab07; Ab7-V (variable regions)
